Experimental findings from the supplement of paper PMC9112550, “Optimization of the antimicrobial peptide Bac7 by deep mutational scanning” (BMC Biology, 2022) are described below.
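Note: peptides expressed intracellularly from a pBAD plasmid library in pooled LB shake-flask culture, induced with 0.3% L-arabinose, DNA abundance read by NGS, three biological replicates, DESeq2 with apeglm shrinkage.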

The series concerns Escherichia coli TOP10. Kind of series: shrunken log2 fold change of peptide-encoding DNA abundance (4.5 h post-induction vs induction); higher = less antimicrobial activity (less host growth inhibition). To be noted: time post-induction: 4.5 h; library: site-saturation at positions 5, 18, 19, 20.
On to RRIRYRPPRLPRPRPRPHAWPRP, for which the “shrunken log2 fold change” value is -0.129. With RRIRMRPPRLPRPRPRPDYWPRP the figure was 0.441; with RRIRYRPPRLPRPRPRPHKIPRP, -0.226; with RRIRLRPPRLPRPRPRPPIWPRP, 0.0261. With RRIRQRPPRLPRPRPRPCSGPRP the figure was -0.0532. Regarding RRIRWRPPRLPRPRPRPNCWPRP, the “shrunken log2 fold change” value came out at 0.533.

With RRIRCRPPRLPRPRPRPDIPPRP, the “shrunken log2 fold change” value was -0.331. With RRIRNRPPRLPRPRPRPEFWPRP the figure was 0.0698; with RRIRMRPPRLPRPRPRPDSNPRP, 0.754; with RRIRTRPPRLPRPRPRPVICPRP, -0.157. For the sequence RRIRNRPPRLPRPRPRPFSSPRP, the “shrunken log2 fold change” value is -0.0316. RRIRIRPPRLPRPRPRPKFVPRP: the “shrunken log2 fold change” value was -0.0693. With RRIRGRPPRLPRPRPRPNLNPRP the figure was 0.0742; with RRIRKRPPRLPRPRPRPWIAPRP, 0.285. Consider RRIRHRPPRLPRPRPRPWLAPRP, for which the “shrunken log2 fold change” value was -0.26. Consider RRIRHRPPRLPRPRPRPRWNPRP, for which the “shrunken log2 fold change” value is -0.065.

On to RRIRTRPPRLPRPRPRPRVMPRP, for which the “shrunken log2 fold change” value turned out to be 0.0867. As for RRIRARPPRLPRPRPRPLCQPRP, the “shrunken log2 fold change” value amounted to 0.42. Regarding RRIRLRPPRLPRPRPRPYKFPRP, the “shrunken log2 fold change” value is -0.447. As for RRIRTRPPRLPRPRPRPWNYPRP, the “shrunken log2 fold change” value is -0.567. As to RRIRQRPPRLPRPRPRPVLIPRP, the “shrunken log2 fold change” value is 0.0422. For the sequence RRIRIRPPRLPRPRPRPDIRPRP, the “shrunken log2 fold change” value is -0.00601.

Turning to RRIRTRPPRLPRPRPRPAAYPRP, the “shrunken log2 fold change” value was -0.000154. RRIRYRPPRLPRPRPRPIGHPRP: the “shrunken log2 fold change” value stood at 3.4. On to RRIRLRPPRLPRPRPRPVKDPRP, for which the “shrunken log2 fold change” value was -0.211. With RRIRDRPPRLPRPRPRPAHTPRP, the “shrunken log2 fold change” value came to 0.0343. Turning to RRIRDRPPRLPRPRPRPVPKPRP, the “shrunken log2 fold change” value was 0.32. Take RRIRIRPPRLPRPRPRPSPMPRP: the “shrunken log2 fold change” value was -0.2. Turning to RRIRGRPPRLPRPRPRPMDCPRP, the “shrunken log2 fold change” value was 0.357.

With RRIRRRPPRLPRPRPRPEYWPRP, the “shrunken log2 fold change” value was 0.0322. With RRIRIRPPRLPRPRPRPPKKPRP the figure was -0.114; with RRIRLRPPRLPRPRPRPWYFPRP, -0.231; with RRIRSRPPRLPRPRPRPEMAPRP, 1.22. With RRIRKRPPRLPRPRPRPFRFPRP, the “shrunken log2 fold change” value was 0.125. Consider RRIRVRPPRLPRPRPRPDHGPRP, for which the “shrunken log2 fold change” value is -0.0218. Take RRIRNRPPRLPRPRPRPCERPRP: the “shrunken log2 fold change” value was -0.00992. As to RRIRPRPPRLPRPRPRPMKGPRP, the “shrunken log2 fold change” value turned out to be 0.15. As for RRIRLRPPRLPRPRPRPANQPRP, the “shrunken log2 fold change” value worked out at 0.137. RRIRVRPPRLPRPRPRPDSHPRP: the “shrunken log2 fold change” value is -0.111.

As for RRIRPRPPRLPRPRPRPFNGPRP, the “shrunken log2 fold change” value is -0.014. On to RRIRQRPPRLPRPRPRPGLLPRP, for which the “shrunken log2 fold change” value was -0.0475.

For RRIRPRPPRLPRPRPRPEERPRP, the “shrunken log2 fold change” value is -0.0232. With RRIRWRPPRLPRPRPRPHRDPRP, the “shrunken log2 fold change” value is -0.215. RRIRSRPPRLPRPRPRPIAAPRP: the “shrunken log2 fold change” value stood at 0.333. With RRIRSRPPRLPRPRPRPPCCPRP the figure was -0.107. With RRIRIRPPRLPRPRPRPPIVPRP the figure was -0.68. Turning to RRIRDRPPRLPRPRPRPAQYPRP, the “shrunken log2 fold change” value is -0.0825. In the case of RRIRNRPPRLPRPRPRPITLPRP, the “shrunken log2 fold change” value is -0.229.

For RRIRPRPPRLPRPRPRPYMMPRP, the “shrunken log2 fold change” value was -0.309. With RRIRLRPPRLPRPRPRPNTPPRP the figure was -0.187; with RRIRERPPRLPRPRPRPWPEPRP, -0.0215; with RRIRMRPPRLPRPRPRPIGVPRP, 0.0547. Turning to RRIRFRPPRLPRPRPRPYCPPRP, the “shrunken log2 fold change” value is -0.721. For the sequence RRIRFRPPRLPRPRPRPATYPRP, the “shrunken log2 fold change” value is -0.191. With RRIRWRPPRLPRPRPRPGHVPRP the figure was 0.153; with RRIRHRPPRLPRPRPRPLVLPRP, -0.0931. With RRIRTRPPRLPRPRPRPDSKPRP, the “shrunken log2 fold change” value came out at 0.0427. Take RRIRFRPPRLPRPRPRPCGQPRP: the “shrunken log2 fold change” value was 0.151.

On to RRIRGRPPRLPRPRPRPHKLPRP, for which the “shrunken log2 fold change” value came to 0.213. For the sequence RRIRWRPPRLPRPRPRPIPRPRP, the “shrunken log2 fold change” value came to 0.0469. On to RRIRARPPRLPRPRPRPYVPPRP, for which the “shrunken log2 fold change” value is -0.114. With RRIRVRPPRLPRPRPRPVVGPRP the figure was 0.126. RRIRPRPPRLPRPRPRPQAFPRP: the “shrunken log2 fold change” value was -0.00213. With RRIRYRPPRLPRPRPRPFPTPRP the figure was -0.781. Turning to RRIRTRPPRLPRPRPRPFNKPRP, the “shrunken log2 fold change” value was 0.0555. As to RRIRRRPPRLPRPRPRPYTAPRP, the “shrunken log2 fold change” value is -0.447. With RRIRCRPPRLPRPRPRPWKEPRP the figure was 0.124. In the case of RRIRRRPPRLPRPRPRPQDTPRP, the “shrunken log2 fold change” value was -0.321. RRIRLRPPRLPRPRPRPTCPPRP: the “shrunken log2 fold change” value is 0.0694. For the sequence RRIRLRPPRLPRPRPRPSEIPRP, the “shrunken log2 fold change” value is -0.397.

Turning to RRIRCRPPRLPRPRPRPFSRPRP, the “shrunken log2 fold change” value was -0.332.

As for RRIRKRPPRLPRPRPRPINAPRP, the “shrunken log2 fold change” value is 0.088. On to RRIRLRPPRLPRPRPRPIRSPRP, for which the “shrunken log2 fold change” value is -0.0199. On to RRIRLRPPRLPRPRPRPFWNPRP, for which the “shrunken log2 fold change” value is -0.275. As to RRIRPRPPRLPRPRPRPMLYPRP, the “shrunken log2 fold change” value was -0.0392. With RRIRVRPPRLPRPRPRPKNMPRP, the “shrunken log2 fold change” value is -0.866. Regarding RRIRWRPPRLPRPRPRPCWAPRP, the “shrunken log2 fold change” value was 0.197.

For the sequence RRIRRRPPRLPRPRPRPGHIPRP, the “shrunken log2 fold change” value is -0.116. With RRIRKRPPRLPRPRPRPHMAPRP the figure was -0.448; with RRIRTRPPRLPRPRPRPEHQPRP, 0.127. On to RRIRHRPPRLPRPRPRPTGHPRP, for which the “shrunken log2 fold change” value came to 0.173. As to RRIRHRPPRLPRPRPRPSMPPRP, the “shrunken log2 fold change” value is -0.0929. With RRIRSRPPRLPRPRPRPPQVPRP, the “shrunken log2 fold change” value was -0.0457. In the case of RRIRYRPPRLPRPRPRPFAAPRP, the “shrunken log2 fold change” value was -0.508. With RRIRHRPPRLPRPRPRPFATPRP the figure was 0.106; with RRIRDRPPRLPRPRPRPCGDPRP, 0.0915; with RRIRVRPPRLPRPRPRPKDKPRP, -0.13. Turning to RRIRSRPPRLPRPRPRPICVPRP, the “shrunken log2 fold change” value is -0.111. On to RRIRARPPRLPRPRPRPYKPPRP, for which the “shrunken log2 fold change” value was -0.304. For the sequence RRIRCRPPRLPRPRPRPVCLPRP, the “shrunken log2 fold change” value is -0.168. Take RRIRIRPPRLPRPRPRPTMLPRP: the “shrunken log2 fold change” value is -0.487. With RRIRSRPPRLPRPRPRPFKLPRP the figure was -0.71.

Regarding RRIRWRPPRLPRPRPRPDHHPRP, the “shrunken log2 fold change” value was -0.445. As to RRIRFRPPRLPRPRPRPCCRPRP, the “shrunken log2 fold change” value is -0.332. With RRIRVRPPRLPRPRPRPALMPRP the figure was 0.193. For RRIRMRPPRLPRPRPRPYWNPRP, the “shrunken log2 fold change” value was -1.04.

Take RRIRLRPPRLPRPRPRPKIYPRP: the “shrunken log2 fold change” value was -0.492.

Take RRIRDRPPRLPRPRPRPLQQPRP: the “shrunken log2 fold change” value came out at 0.104. On to RRIRLRPPRLPRPRPRPEFLPRP, for which the “shrunken log2 fold change” value is -0.108.

RRIRARPPRLPRPRPRPAGVPRP: the “shrunken log2 fold change” value turned out to be 0.45. As for RRIRYRPPRLPRPRPRPRVCPRP, the “shrunken log2 fold change” value came out at 0.0157. Turning to RRIRKRPPRLPRPRPRPQNFPRP, the “shrunken log2 fold change” value is -0.214. Consider RRIRMRPPRLPRPRPRPAQEPRP, for which the “shrunken log2 fold change” value came out at 0.0616.

As for RRIRVRPPRLPRPRPRPIHTPRP, the “shrunken log2 fold change” value is -0.305.

Turning to RRIRDRPPRLPRPRPRPFIRPRP, the “shrunken log2 fold change” value is -0.29. For RRIRFRPPRLPRPRPRPMLEPRP, the “shrunken log2 fold change” value is 0.147. In the case of RRIRNRPPRLPRPRPRPDSSPRP, the “shrunken log2 fold change” value was -0.00145. With RRIRNRPPRLPRPRPRPSMRPRP the figure was 0.000173; with RRIRRRPPRLPRPRPRPTHKPRP, 0.783; with RRIRDRPPRLPRPRPRPGNPPRP, -5.31e-05. With RRIRMRPPRLPRPRPRPWYHPRP, the “shrunken log2 fold change” value was -0.00277.

Turning to RRIRHRPPRLPRPRPRPETVPRP, the “shrunken log2 fold change” value amounted to 0.12.

In the case of RRIRDRPPRLPRPRPRPSKTPRP, the “shrunken log2 fold change” value stood at 0.0521. With RRIRWRPPRLPRPRPRPKGMPRP the figure was -0.159. With RRIRERPPRLPRPRPRPDTEPRP, the “shrunken log2 fold change” value is -0.0215. On to RRIRRRPPRLPRPRPRPGLAPRP, for which the “shrunken log2 fold change” value worked out at 0.763. With RRIRQRPPRLPRPRPRPYAPPRP the figure was -0.505.

Consider RRIRTRPPRLPRPRPRPWSDPRP, for which the “shrunken log2 fold change” value is -0.0131. On to RRIRPRPPRLPRPRPRPAVRPRP, for which the “shrunken log2 fold change” value was -0.246. Regarding RRIRIRPPRLPRPRPRPDYTPRP, the “shrunken log2 fold change” value was -0.00167. With RRIRVRPPRLPRPRPRPQVCPRP the figure was -0.0138; with RRIRCRPPRLPRPRPRPAWIPRP, -0.197. With RRIRSRPPRLPRPRPRPCYGPRP the figure was -0.523; with RRIRERPPRLPRPRPRPKMDPRP, -0.0491. For the sequence RRIRWRPPRLPRPRPRPYRKPRP, the “shrunken log2 fold change” value came out at 0.0527.
